What all share (assay): SPR
A general note: In SPR one partner is held on a chip, and binding of the other changes the refractive index at the surface.

For one experiment, the target named is rufomycin I (RUF-I). The conditions noted are these: read off a plot.
In experiment [1] the target is ClpC1-NTD MAFER (Mycobacterium tuberculosis) (UniProt P9WPC9).
A further experiment addresses ohmyungsamycin A (OMS-A). The conditions noted are these: read off a plot.
Another experiment addresses ecumicin (ECU). The conditions noted are these: read off a plot.
Experiment [2] deals with ClpC1-FL mutant K85A (Mycobacterium tuberculosis) (UniProt P9WPC9).
Experiment [3] concerns the target ClpC1-FL mutant L92S/L96P (Mycobacterium tuberculosis) (UniProt P9WPC9).
Experiment [4] has as its target ClpC1-FL mutant Q17A (Mycobacterium tuberculosis) (UniProt P9WPC9).
Experiment [5] addresses ClpC1-FL mutant V14A (Mycobacterium tuberculosis) (UniProt P9WPC9).
In experiment [6] the target is ClpC1-NTD N-terminal mutant FER (residues 2-145) (Mycobacterium tuberculosis) (UniProt P9WPC9).
For experiment [7], the target named is ClpC1-NTD N-terminal mutant MVFER (Mycobacterium tuberculosis) (UniProt P9WPC9).

With “full-length ClpC1 (ClpC1-FL) (from UniProt P9WPC9) L92S; L96P”, the Kd with rufomycin I (RUF-I) (parent: est. 87 nM) stood at 260 nM.
ecumicin (peptide) had a Kd in [1] of 3500 nM.
For “ClpC1-NTD (SPR construct, His6-SUMO tag cleaved) (from UniProt P9WPC9) M1del (FER)”, the Kd with ohmyungsamycin A (OMS-A) (parent: est. 400 nM) is 4900 nM; in the experiment with rufomycin I (RUF-I) (parent: est. 68 nM), 360 nM.
With “full-length ClpC1 (ClpC1-FL) (from UniProt P9WPC9) V14A”, the Kd with ohmyungsamycin A (OMS-A) (parent: est. 350 nM) is 1600 nM; with rufomycin I (RUF-I) (parent: est. 87 nM), 630 nM.
Take “full-length ClpC1 (ClpC1-FL) (from UniProt P9WPC9) Q17A”: the Kd turned out to be 1300 nM in the experiment with ohmyungsamycin A (OMS-A) (parent: est. 350 nM) and 1400 nM in the experiment with rufomycin I (RUF-I) (parent: est. 87 nM).
As for “full-length ClpC1 (ClpC1-FL) (from UniProt P9WPC9) K85A”, the Kd in the experiment with ecumicin (ECU) (parent: est. 68 nM) amounted to 580 nM; in the experiment with ohmyungsamycin A (OMS-A) (parent: est. 350 nM), 1600 nM; in the experiment with rufomycin I (RUF-I) (parent: est. 87 nM) it was 420 nM.
For the substance “ClpC1-NTD (SPR construct, His6-SUMO tag cleaved) (from UniProt P9WPC9) AAFER (Met1Ala mutation and Ala insertion)”, the results for the Kd with ecumicin (ECU) (parent: est. 51 nM), with ohmyungsamycin A (OMS-A) (parent: est. 400 nM) and in the experiment with rufomycin I (RUF-I) (parent: est. 68 nM) were 3300 nM, 9200 nM and 1200 nM, respectively.
Consider rufomycin I (RUF-I) (peptide), for which the fold reduction in binding affinity against wild type in experiment [2] turned out to be 5 fold; in experiment [3], 3 fold; in experiment [5], 8 fold; in [7], 6 fold. For the same substance, the fold reduction in binding against wild type in experiment [4] was determined as 17 fold; in experiment [6] it was 5 fold.
Consider “ClpC1-NTD (SPR construct, His6-SUMO tag cleaved) (from UniProt P9WPC9) MVAFER (ValAla inserted before Phe2)”, for which the Kd with rufomycin I (RUF-I) (parent: est. 68 nM) was determined as 900 nM.
In the case of “ClpC1-NTD (SPR construct, His6-SUMO tag cleaved) (from UniProt P9WPC9) MVFER (Val inserted before Phe2)”, in the experiment with ecumicin (ECU) (parent: est. 51 nM), the Kd was found to be 4100 nM.
Take “ClpC1-NTD (SPR construct, His6-SUMO tag cleaved) (from UniProt P9WPC9) MAF (MAFER: Ala inserted before Phe2)”: the Kd with ecumicin (ECU) (parent: est. 51 nM) stood at 3800 nM; with ohmyungsamycin A (OMS-A) (parent: est. 400 nM), 9600 nM.

A word on the Kd: it is the constant that tells how readily two partners part at equilibrium.

The values are drawn from paper PMC7193532 (Acta Crystallographica. Section D, Structural Biology, 2020).
